Data on 46 substances can be found in the Human Domainome abundance scans (Beltran et al. 2025).

± gives the uncertainty stated by the source.

This series can be described thus: abundance fitness (aPCA) (normalised: wild type 0, dead -1); higher = more abundant; growth selection in yeast, the domain comes from the species named. To be noted: Homo sapiens.
The substance “Lipoamide acyltransferase component of branched-chain alpha-keto acid dehydrogenase complex, mitochondrial A176D, P11182” returned an abundance fitness of -0.047 ± 0.043.

Take “Lipoamide acyltransferase component of branched-chain alpha-keto acid dehydrogenase complex, mitochondrial A176E, P11182”: the abundance fitness is -0.043 ± 0.06.

The substance “Lipoamide acyltransferase component of branched-chain alpha-keto acid dehydrogenase complex, mitochondrial A176G, P11182” came in with an abundance fitness of -0.074 ± 0.038.

“Lipoamide acyltransferase component of branched-chain alpha-keto acid dehydrogenase complex, mitochondrial A176H, P11182” came in with an abundance fitness of -0.128 ± 0.06.

Substance “Lipoamide acyltransferase component of branched-chain alpha-keto acid dehydrogenase complex, mitochondrial A176I, P11182” registered an abundance fitness of -0.115 ± 0.089.

“Lipoamide acyltransferase component of branched-chain alpha-keto acid dehydrogenase complex, mitochondrial A176K, P11182” had an abundance fitness of -0.312 ± 0.065.

Consider “Lipoamide acyltransferase component of branched-chain alpha-keto acid dehydrogenase complex, mitochondrial A176L, P11182”, for which the abundance fitness is -0.21 ± 0.046.

On to “Lipoamide acyltransferase component of branched-chain alpha-keto acid dehydrogenase complex, mitochondrial A176M, P11182”, for which the abundance fitness is -0.127 ± 0.043.

Substance “Lipoamide acyltransferase component of branched-chain alpha-keto acid dehydrogenase complex, mitochondrial A176N, P11182” registered an abundance fitness of -0.113 ± 0.097.

In turn, “Lipoamide acyltransferase component of branched-chain alpha-keto acid dehydrogenase complex, mitochondrial A176P, P11182” showed an abundance fitness of -0.203 ± 0.043.

Turning to “Lipoamide acyltransferase component of branched-chain alpha-keto acid dehydrogenase complex, mitochondrial A176Q, P11182”, the abundance fitness was determined as 0.017 ± 0.058.

Regarding “Lipoamide acyltransferase component of branched-chain alpha-keto acid dehydrogenase complex, mitochondrial A176R, P11182”, the abundance fitness is -0.143 ± 0.036.

“Lipoamide acyltransferase component of branched-chain alpha-keto acid dehydrogenase complex, mitochondrial A176S, P11182” displayed an abundance fitness of -0.036 ± 0.039.

Substance “Lipoamide acyltransferase component of branched-chain alpha-keto acid dehydrogenase complex, mitochondrial A176T, P11182” yielded an abundance fitness of -0.067 ± 0.051.

Regarding “Lipoamide acyltransferase component of branched-chain alpha-keto acid dehydrogenase complex, mitochondrial A176V, P11182”, the abundance fitness was -0.168 ± 0.041.

“Lipoamide acyltransferase component of branched-chain alpha-keto acid dehydrogenase complex, mitochondrial A176W, P11182” gave an abundance fitness of -0.473 ± 0.045.

As for “Lipoamide acyltransferase component of branched-chain alpha-keto acid dehydrogenase complex, mitochondrial A176Y, P11182”, the abundance fitness is -0.16 ± 0.06.

Consider “Lipoamide acyltransferase component of branched-chain alpha-keto acid dehydrogenase complex, mitochondrial D197A, P11182”, for which the abundance fitness was -0.235 ± 0.036.

“Lipoamide acyltransferase component of branched-chain alpha-keto acid dehydrogenase complex, mitochondrial D197C, P11182” registered an abundance fitness of -0.319 ± 0.095.

For “Lipoamide acyltransferase component of branched-chain alpha-keto acid dehydrogenase complex, mitochondrial D197E, P11182”, the abundance fitness was -0.098 ± 0.05.

The substance “Lipoamide acyltransferase component of branched-chain alpha-keto acid dehydrogenase complex, mitochondrial D197F, P11182” yielded an abundance fitness of -0.26 ± 0.17.

Turning to “Lipoamide acyltransferase component of branched-chain alpha-keto acid dehydrogenase complex, mitochondrial D197H, P11182”, the abundance fitness amounted to 0.025 ± 0.11.

The substance “Lipoamide acyltransferase component of branched-chain alpha-keto acid dehydrogenase complex, mitochondrial D197I, P11182” came in with an abundance fitness of -1.31 ± 0.15.

In turn, “Lipoamide acyltransferase component of branched-chain alpha-keto acid dehydrogenase complex, mitochondrial D197K, P11182” registered an abundance fitness of -0.23 ± 0.048.

“Lipoamide acyltransferase component of branched-chain alpha-keto acid dehydrogenase complex, mitochondrial D197L, P11182”: the abundance fitness is -0.337 ± 0.055.

“Lipoamide acyltransferase component of branched-chain alpha-keto acid dehydrogenase complex, mitochondrial D197M, P11182” gave an abundance fitness of -0.382 ± 0.082.

Consider “Lipoamide acyltransferase component of branched-chain alpha-keto acid dehydrogenase complex, mitochondrial D197P, P11182”, for which the abundance fitness was -0.76 ± 0.13.

“Lipoamide acyltransferase component of branched-chain alpha-keto acid dehydrogenase complex, mitochondrial D197Q, P11182”: the abundance fitness was -0.183 ± 0.044.

The substance “Lipoamide acyltransferase component of branched-chain alpha-keto acid dehydrogenase complex, mitochondrial D197S, P11182” came in with an abundance fitness of -0.205 ± 0.041.

“Lipoamide acyltransferase component of branched-chain alpha-keto acid dehydrogenase complex, mitochondrial D197T, P11182” came in with an abundance fitness of -0.45 ± 0.06.

Turning to “Lipoamide acyltransferase component of branched-chain alpha-keto acid dehydrogenase complex, mitochondrial D197V, P11182”, the abundance fitness is -0.728 ± 0.061.

The substance “Lipoamide acyltransferase component of branched-chain alpha-keto acid dehydrogenase complex, mitochondrial D197W, P11182” gave an abundance fitness of -0.387 ± 0.064.

On to “Lipoamide acyltransferase component of branched-chain alpha-keto acid dehydrogenase complex, mitochondrial D204A, P11182”, for which the abundance fitness was -1.24 ± 0.064.

The substance “Lipoamide acyltransferase component of branched-chain alpha-keto acid dehydrogenase complex, mitochondrial D204C, P11182” registered an abundance fitness of -1.27 ± 0.098.

Substance “Lipoamide acyltransferase component of branched-chain alpha-keto acid dehydrogenase complex, mitochondrial D204E, P11182” displayed an abundance fitness of -0.771 ± 0.1.

In turn, “Lipoamide acyltransferase component of branched-chain alpha-keto acid dehydrogenase complex, mitochondrial D204G, P11182” returned an abundance fitness of -0.806 ± 0.042.

“Lipoamide acyltransferase component of branched-chain alpha-keto acid dehydrogenase complex, mitochondrial D204H, P11182”: the abundance fitness is -0.946 ± 0.16.

Regarding “Lipoamide acyltransferase component of branched-chain alpha-keto acid dehydrogenase complex, mitochondrial D204L, P11182”, the abundance fitness was -1.26 ± 0.1.

Substance “Lipoamide acyltransferase component of branched-chain alpha-keto acid dehydrogenase complex, mitochondrial D204M, P11182” yielded an abundance fitness of -1.35 ± 0.11.

“Lipoamide acyltransferase component of branched-chain alpha-keto acid dehydrogenase complex, mitochondrial D204N, P11182” gave an abundance fitness of -0.136 ± 0.4.

Substance “Lipoamide acyltransferase component of branched-chain alpha-keto acid dehydrogenase complex, mitochondrial D204P, P11182” had an abundance fitness of -0.455 ± 0.06.

In turn, “Lipoamide acyltransferase component of branched-chain alpha-keto acid dehydrogenase complex, mitochondrial D204Q, P11182” registered an abundance fitness of -0.932 ± 0.062.

“Lipoamide acyltransferase component of branched-chain alpha-keto acid dehydrogenase complex, mitochondrial D204R, P11182” had an abundance fitness of -1.07 ± 0.047.

“Lipoamide acyltransferase component of branched-chain alpha-keto acid dehydrogenase complex, mitochondrial D204S, P11182” yielded an abundance fitness of -0.83 ± 0.068.

The substance “Lipoamide acyltransferase component of branched-chain alpha-keto acid dehydrogenase complex, mitochondrial D204T, P11182” displayed an abundance fitness of -0.973 ± 0.064.

“Lipoamide acyltransferase component of branched-chain alpha-keto acid dehydrogenase complex, mitochondrial D204V, P11182” showed an abundance fitness of -1.1 ± 0.072.
